From US7597894B2, “Compositions and methods employing alternative reading frame polypeptides for the treatment of cancer and infectious disease” (Dendreon Corporation, priority 2003, dated 2009)

Key:
[1] = tested on: hHER-2/EL4 (E.HER2) tumor cells; experiment: Survival after hHER-2/EL4 (E.HER2) tumor challenge of mice pre-immunized with antigen-pulsed dendritic cells; assay type: in vivo, mouse; details: C57BL/6 mice pre-immunized i.p. with antigen-pulsed activated DC, challenged i.p. with hHER-2/EL4 (E.HER2) cells
Method: (§1) The hHER-2/E14 tumor cell line was generated by transfecting the mouse EL4 thymoma cell line (ATCC No. TIB-39, Rockville, Md.) with full-length human HER-2 cDNA cloned into the MIRB vector. The hHER-2/B16 tumor cell line was generated by transfecting the mouse B16 melanoma cell line (ATCC No. CRL-6322, Rockville, Md.) with full-length human HER-2 cDNA cloned into the pCR3.1 vector.
(§2) Enriched activated dendritic cells (DCs) were prepared as described (Laus et al., Nature Biotechnology 18:1269-1272 (2000)). Briefly, enriched preparations of activated DC were prepared by incubating female C57BL/6 spleen cells in tissue culture flasks for 2 h at 37° C., removing non-adherent cells, and subsequently culturing the remaining adherent cells for two days in the presence of 1 μM ionomycin (Sigma, St. Louis, Mo.). DC obtained in this manner were pulsed by sixteen hour co-culture with each of the indicated HER-2 ARF polypeptide pools or HER-2 fusion proteins in 1 μM ionomycin, washed two times and injected intraperitoneally (i.p.) into the C57BL/6 mice (2.5×10^5 cells per mouse). Two weeks after the last immunization, mice were challenged with a single i.p. injection of hHER-2/EL4 cells or hHER-2/B 16 cells in 0.1 ml PBS. Mice were monitored daily and their survival recorded.
The effect of pre-immunization with HER-2-ARF polypeptide-pulsed activated DC on suppression of in vivo growth of HER-2-expressing autologous tumors was evaluated in a mouse animal model system. The results of two independent experiments using hHER-2/EL4 cells are shown in FIGS. 1A and 1B, respectively. The results of two independent experiments using hHER-2/B 16 tumor cells are shown in FIGS. 2A and 2B, respectively.

[2] = tested on: CD8 T cell hybridoma B6-H9.B7; experiment: T cell hybridoma assay (stimulation of CD8 T cell hybridoma B6-H9.B7 by Ag-pulsed cells); assay type: cell-based, mouse; details: untransfected EL-4 tumor cells pre-pulsed with the peptide as stimulators
Method: CD8 T cell hybridoma B6-H9.B7, specific for the protective Arf peptide 3h, was isolated from mice immunized with HER-2-derived Arf pool B peptides. FIG. 8D. This hybridoma was stimulated by untransfected EL-4 tumor cells pre-pulsed with the peptide 3h as well as an E.HER2 tumor transfectant in the absence of any externally added Arf peptide.
Arf epitope-specific MHC class I-dependent CD8^+ T cell hybridoma B6.H9-B7 was obtained by fusing thymoma cell line BWZ.36CD8 with splenocytes of mice immunized with HER-2-derived Arf pool B3 peptides. Sanderson et al., Int. Immunol. 6:369-376 (1994). The T cell hybridoma assay was performed as described previously. Karttunen et al., Proc. Natl. Acad. Sci. USA. 88:3972-3976 (1991). Briefly, 10^5 hybridoma cells were incubated in 0.2 ml micro-wells with designated washed Ag-pulsed APC. Stimulation of B6.H9-B7 was visualized after incubation with chlorophenol red B-galactoside (expressed in relative light units). FIG. 8E.

[3] = tested on: mPAP/B16 (B16.mPAP) tumor cells; experiment: Survival after challenge with B16 cells expressing an irrelevant antigen (mouse PAP); assay type: in vivo; details: C57BL/6 mice pre-immunized with antigen-pulsed DC, challenged with B16 cells expressing irrelevant antigen mouse PAP
[4] = tested on: hHER-2/B16 (B16.HER2) tumor cells; experiment: Survival after hHER-2/B16 tumor challenge of mice pre-immunized with antigen-pulsed dendritic cells; assay type: in vivo, mouse; details: C57BL/6 mice pre-immunized with antigen-pulsed DC, challenged with hHER-2/B16 cells
Method: as §1
as §2, with “Two weeks after the last immunization, mice were challenged with a single i.p. injection of hHER-2/EL4 cells or hHER-2/B 16 cells in 0.1 ml PBS.” left out
The effect of pre-immunization with HER-2-ARF polypeptide-pulsed activated DC on suppression of in vivo growth of HER-2-expressing autologous tumors was evaluated in a mouse animal model system. […]

## RHEAAAPCQSRDPPG (Made in a lab from synthetic material) [3h]
[1]
  protection against tumor challenge / survival (prevention of in vivo tumor growth): strong protective capabilities
[2]
  stimulation of CD8 T cell hybridoma B6-H9.B7: stimulated

## VHRHRHEAAAPCQSR (Made in a lab from synthetic material) [3g]
[1]
  protection against tumor challenge / survival (prevention of in vivo tumor growth): strong protective capabilities

B1: HER500rGM-CSF: recombinant fusion protein of hHER-2 extracellular and intracellular domain sequences, OVA octapeptide and rat GM-CSF; positive control (protein, listed as Homo sapiens)
chain: MRAAPLLLARAASLSLGFLFLLFFWLDRSVLAKELARGAASTQVCTGTDMKLRLPASPETHLDMLRHLYQGCQVVQGNLELTYLPTNASLSFLQDIQEVQGYVLIAHNQVRQVPLQRLRIVRGTQLFEDNYALAVLDNGDPLNNTTPVTGASPGGLRELQLRSLTEILKGGVLIQRNPQLCYQDTILWKDIFHKNNQLALTLIDTNRSRACHPCSPMCKGSRCWGESSEDCQSLTRTVCAGGCARCKGPLPTDCCHEQCAAGCTGPKHSDCLACLHFNHSGICELHCPALVTYNTDTFESMPNPEGRYTFGASCVTACPYNYLSTDVGSASIINFEKLGAGGMVHHRHRSSSTRSGGGDLTLGLEPSEEEAPRSPLAPSEGAGSDVFDGDLGMGAAKGLQSLPTHDPSPLQRYSEDPTVPLPSETDGYVAPLTCSPQPEYVNQPDVRPQPPSPREGPLPAARPAGATLERAKTLSPGKNGVVKDVFAFGGAVENPEYLTPQGGAAPQPHPPPAFSPAFDNLYYWDQDPPERGAPPSTFKGTPTAENPEYLGLDVPAAAPTRSPNPVTRPWKHVDAIKEALSLLNDMRALENEKNEDVDIISNEFSIQRPTCVQTRLKLYKQGLRGNLTKLNGALTMIASHYQTNCPPTPETDCEIEVTTFEDFIKNLKGFLFDIPFDCWKPVQKGAPPPPAHHHHHH
[1]
  protection against tumor challenge / survival (prevention of in vivo tumor growth): prevented tumor growth
[3]
  protection against tumor challenge / survival: no protection
[4]
  protection against tumor challenge / survival: protection

B2: HER300: recombinant fusion protein with 289 amino acids of HER-2 membrane distal extracellular domain and OVA257-264; negative control (protein, listed as Homo sapiens)
chain: MRAAPLLLARAASLSLGFLFLLFFWLDRSVLAKELARGAASTQVCTGTDMKLRLPASPETHLDMLRHLYQGCQVVQGNLELTYLPTNASLSFLQDIQEVQGYVLIAHNQVRQVPLQRLRIVRGTQLFEDNYALAVLDNGDPLNNTTPVTGASPGGLRELQLRSLTEILKGGVLIQRNPQLCYQDTILWKDIFHKNNQLALTLIDTNRSRACHPCSPMCKGSRCWGESSEDCQSLTRTVCAGGCARCKGPLPTDCCHEQCAAGCTGPKHSDCLACLHFNHSGICELHCPALVTYNTDTFESMPNPEGRYTFGASCVTACPYNYLSTDVGSASIINFEKLAAPTRSPNPVTRPWKHVDAIKEALSLLNDMRALENEKNEDVDIISNEFSIQRPTCVQTRLKLYKQGLRGNLTKLNGALTMIASHYQTNCPPTPETDCEIEVTTFEDFIKNLKGFLFDIPFDCWKPVQKGAPPPPAHHHHHH
[1]
  protection against tumor challenge / survival (prevention of in vivo tumor growth): had little effect
